Assay results as given in US20040018530.
Where two headings read alike, the source gives them in different places.

What was measured:
[1] = test system: IgE (immunoglobulin E, monoclonal, kappa light chain) (Homo sapiens); conditions: CE-UV binding assay; rounds 1, 2, 3 gave 62, 96, ~100% bound; PBS, 1 mM MgCl2, pH 8.0, 25 C
[2] = test system: IgE (immunoglobulin E, monoclonal, kappa light chain) (Homo sapiens); conditions: CE-UV binding assay up to 2.5 uM IgE; round 1 pool 33% bound; PBS, 1 mM MgCl2, pH 8.0, 25 C
[3] = test system: IgE (immunoglobulin E, monoclonal, kappa light chain) (Homo sapiens); conditions: CE-UV binding assay up to 1.1 uM IgE; round 1 pool 67% bound; PBS, 1 mM MgCl2, pH 8.0, 25 C
[4] = test system: IgE (immunoglobulin E, monoclonal, kappa light chain) (Homo sapiens); conditions: affinity capillary electrophoresis with LIF; PBS, 1 mM MgCl2, 35 mM NaCl, pH 8.0, 25 C
[5] = test system: IgE (immunoglobulin E, monoclonal, kappa light chain) (Homo sapiens); conditions: affinity capillary electrophoresis with LIF; PBS, 1 mM MgCl2, 40 mM NaCl, pH 8.0, 25 C
[6] = test system: IgE (immunoglobulin E, monoclonal, kappa light chain) (Homo sapiens); conditions: affinity capillary electrophoresis with LIF; PBS, 1 mM MgCl2, pH 8.0, 25 C; literature value 10 nM; cited from earlier work

AGCAGCACAGAGGTCAGATGNNNNNNNNNNNNNNNNNNNNNNNNNNNNNNNNNNNNNNNNCCTATGCGTGCTACCGTGAA [CE-SELEX experiment 3 round 4 enriched pool]
binding [1]: 100 % bound

AGCAGCACAGAGGTCAGATGNNNNNNNNNNNNNNNNNNNNNNNNNNNNNNNNNNNNNNNNCCTATGCGTGCTACCGTGAA [CE-SELEX experiment 1 round 2 enriched pool]
binding [2]: 100 % bound

AGCAGCACAGAGGTCAGATGNNNNNNNNNNNNNNNNNNNNNNNNNNNNNNNNNNNNNNNNCCTATGCGTGCTACCGTGAA [CE-SELEX experiment 2 round 2 enriched pool]
binding [3]: 100 % bound

AGCAGCACAGAGGTCAGATGGTAATTTTCGCTGCGATTAGGCTTGTGACAAAATTACTATCCTATGCGTGCTACCGTGAA [Clone 1.8]
Kd [4]: 0.293 µM

AGCAGCACAGAGGTCAGATGGATGGGGGGGTCTAACGTGCGATCTGCCGACTTTATCCTGCCTATGCGTGCTACCGTGAA [Clone 2.27]
Kd [5]: 0.052 µM

CTACCTACGATCTGACTAGCGGGGCACGTTTATCCGTCCCTCCTAGTGGCGTGCCCCGCTTACTCTCATGTAGTTCC [conventional SELEX IgE aptamer]
Kd [6]: 0.004 µM
